Usually Km stands for the substrate concentration at which the rate is half of its maximum.

This note sets out measurements from article PMC12264004, “Super-resolution imaging of native fluorescent photoreceptors in chytrid fungal eyes” (The EMBO Journal, 2025).

Data set [1] has as its system T1, CaRGC (homodimeric, full-length).
T1 construct: homodimer; crude membrane fraction (HEK293T); gene as used in Scheib et al 2018
The data set can be described thus: cGMP by reverse-phase HPLC, Hill fit, crude membranes. It is filed as biochemical, Catenaria anguillulae. The settings on record: light-triggered; 10 mM MgCl2; HEPES pH 7.4.

Substrate in data set [2]: Nc1nc2c(ncn2[C@@H]2O[C@H](COP(=O)(O)OP(=O)(O)OP(=O)(O)O)[C@@H](O)[C@H]2O)c(=O)[nH]1
The data set can be described thus: cGMP by reverse-phase HPLC, Hill fit. In kind it is biochemical, Rhizoclosmatium globosum. The following applies: GTP:MnCl2 1:2.

Turning to `Nc1nc2c(ncn2[C@@H]2O[C@H](COP(=O)(O)OP(=O)(O)OP(=O)(O)O)[C@@H](O)[C@H]2O)c(=O)[nH]1` [GTP], the Km in data set [1] turned out to be 470 ± 50 µM.

B1: RGC2-cat/NeoR-cat (Rhizoclosmatium globosum) (protein)
chain 1: ATGSEEYSSVTVFFSDVTNFHALSNKNSTKEMLATLNKLWIEYDVICKRWGVYKVETIGDAFLGVVGAPERVPDHAERAANFAVDVISMVQDFRTDKGEELITRVGLNSGPITAGILGDSNPHWCIVGDAVNTASRMESTSKPMRIHISENTYKLIKNKGFRLEGPDVMNIKGKGTMNTYWINGRS
chain 2: TGAEEYSCVTVFFSDIANFTPLSQRTSTKDMLASLNNMWIEYDKISKKWGMYKVETIGDAFLGVVGAPDRVPDHAERAAEFSIDIIDMIKDFRLVTGEPIQIRAGLNSGPVTAGILGESNPHWCIVGDTVTIASKMEATSKHMKIHIAESTFNLIKSSGKFRTSDSEPVTIKGNVINTFFIEGRA
notes: equimolar mixture of purified C-terminally His-tagged catalytic domains (E. coli); heterodimer
Regarding B1, the Km in data set [2] (equimolar mixture) is 980 µM.

B2: RGC1-cat (Rhizoclosmatium globosum) (protein)
chain: NGAEEYASVTVFFSDITNFVALSGKSSTKDMLATLNKLWVEYDVICKRWGVYKVETIGDAFLGVVGAPDRIPDHAERAANFAIDVIRMVQDFRTVNDEEIVTRIGLNSGPITAGILGDSNPHWCIVGDAVNTASRMESTSKPMRIHISENTYKLINGKGFKLEGPDVMNIKGKGTMNTYWINGRG
notes: soluble catalytic domain aa 365-551, C-terminal His-tag, E. coli ArcticExpress (DE3), 24,997 g/mol, homodimer
Turning to B2, the Km in data set [2] was determined as 5530 µM.

B3: RGC1-cat/NeoR-cat (Rhizoclosmatium globosum) (protein)
chain 1: B2 chain
chain 2: B1 chain 2
notes: equimolar mixture of purified C-terminally His-tagged catalytic domains (E. coli); heterodimer, some RGC1-cat homodimer remains
As to B3, the Km in data set [2] (equimolar mixture) stood at 1540 µM.
